{
  "source": "patent US20190144550A1",
  "target": "wild-type EGFR expressed on cells (human) (UniProt P00533)",
  "assay": "flow cytometry, A431 cells",
  "data": [
    {"substance": "FITC-conjugated goat anti-mouse Fc specific secondary antibody", "values": [
      {"measurement": "MFI", "value": 185}
    ]}
  ]
}
